From patent publication US20140349340A1, “MBTH-LIKE PROTEINS IN THE PRODUCTION OF SEMI SYNTHETIC ANTIBIOTICS” (DSM SINOCHEM PHARMACEUTICALS NETHERLANDS B.V., priority 2012, published 2014)

B1: CepB_M2_A: purified adenylation domain of CepB (PCZA363.4) module M2 (SEQ ID NO: 4); Amycolatopsis orientalis (protein, listed as Amycolatopsis orientalis)
chain: LPVGRLGVTSEPARASVVERWNSTGEAANRTSVLELFRQQADASPDAVAVMDAARTLSYADLDRESDRLAGYLAAMGVRRGDRVGVVMERGTDLFVALLAVWKAGAAQVPVNVDYPAERIERMLADAGASVAVCLEATRKAVPDGVEPVVMDVPAIDGVRHEAPQVTVGAHDLAYVMYTSGSTGVPKGVAVPHGSVAALASDPGWSQGPDDCVLLHASHAFDASLVEIWVPLVNGSRVMVAEPGAVDAERLREAISRGVTTVHLTAGAFRAVAEESPDSFTGLREILTGGDAVPLASVVRMRRACPDVRVRQLYGPTEITLCATWHVIEPGAETGDTLPIGRPLAGRQAYVLDAFLQPVAPNVTGELYIAGAGLAHGYLGNNGSTSERFIANPFASGERMYRTGDLARWTDQGELLFAGRADSQVKIRGYRVEPGEIEVALTEVPHVAQAVVVAREDHPGDKRLIAYVTAEEGPALAADAVREHLAARMPEFMVPAVVLVLDSFPLTLNGKIDRAALPAPEFTGKAAGREPRTETERVLC
B2: TycA: control protein; first one-module-bearing peptide synthetase for synthesis of tyrocidine by Bacillus brevis, phenylalanine-specific adenylation domain (protein, UniProt P09095 1-1088, looked up)
Tyrocidine synthase 1: MLANQANLIDNKRELEQHALVPYAQGKSIHQLFEEQAEAFPDRVAIVFENRRLSYQELNRKANQLARALLEKGVQTDSIVGVMMEKSIENVIAILAVLKAGGAYVPIDIEYPRDRIQYILQDSQTKIVLTQKSVSQLVHDVGYSGEVVVLDEEQLDARETANLHQPSKPTDLAYVIYTSGTTGKPKGTMLEHKGIANLQSFFQNSFGVTEQDRIGLFASMSFDASVWEMFMALLSGASLYILSKQTIHDFAAFEHYLSENELTIITLPPTYLTHLTPERITSLRIMITAGSASSAPLVNKWKDKLRYINAYGPTETSICATIWEAPSNQLSVQSVPIGKPIQNTHIYIVNEDLQLLPTGSEGELCIGGVGLARGYWNRPDLTAEKFVDNPFVPGEKMYRTGDLAKWLTDGTIEFLGRIDHQVKIRGHRIELGEIESVLLAHEHITEAVVIAREDQHAGQYLCAYYISQQEATPAQLRDYAAQKLPAYMLPSYFVKLDKMPLTPNDKIDRKALPEPDLTANQSQAAYHPPRTETESILVSIWQNVLGIEKIGIRDNFYSLGGDSIQAIQVVARLHSYQLKLETKDLLNYPTIEQVALFVKSTTRKSDQGIIAGNVPLTPIQKWFFGKNFTNTGHWNQSSVLYRPEGFDPKVIQSVMDKIIEHHDALRMVYQHENGNVVQHNRGLGGQLYDFFSYNLTAQPDVQQAIEAETQRLHSSMNLQEGPLVKVALFQTLHGDHLFLAIHHLVVDGISWRILFEDLATGYAQALAGQAISLPEKTDSFQSWSQWLQEYANEADLLSEIPYWESLESQAKNVSLPKDYEVTDCKQKSVRNMRIRLHPEETEQLLKHANQAYQTEINDLLLAALGLAFAEWSKLAQIVIHLEGHGREDIIEQANVARTVGWFTSQYPVLLDLKQTAPLSDYIKLTKENMRKIPRKGIGYDILKHVTLPENRGSLSFRVQPEVTFNYLGQFDADMRTELFTRSPYSGGNTLGADGKNNLSPESEVYTALNITGLIEGGELVLTFSYSSEQYREESIQQLSQSYQKHLLAIIAHCTEKKEVERTPSDFSVKGLQMEEMDDIFELLANTLR
B3: StaC_M2_A: purified adenylation domain of StaC module M2 (SEQ ID NO: 8); Streptomyces toyocaensis (protein, listed as Streptomyces toyocaensis)
chain: LPVGRLGVTSDATRTSEVERWNATGEAAGGASVVELFRRRSAGTPDAVAVVDGDRTLSYGDLDRESDRLAGRLAETGVRRGDHVGVVLERGADLFVAFLAVWKAGAAYVPVHVDYPPVRIERMLADAGVTVAVCAEGTRNAVPDGLEPVPVDAPWAGETRHETPTVTARDAAYVMYTSGSTGEPKGIVVPHGSVAALAGDPGWALDADDCVLMHASHAFDASLFEIWAPLVRGARVMVAEPGAVDTQRLREAVARGVTTVHLTAGSFRVLAEESPGSFDGLREILTGGDVVPLASVAQLRRACPDVRVRHLYGPTETTLCGTWHLLEPGDEPGDVLPIGRPLAGRRAYVLDAFLQPVAPNVTGELYLAGVGLALGYLGARGATSERFVADPFVPGERMYRTGDLARRNDRGELLFAGRADAQVKIRGYRVEPTEIETVLAEAPQVAQTVVVAREDGPGEKRLIAYAIAEPDQVLDPEALREHLAARLPEFMVPAAVVVLDDFPLTINGKIDREALPAPEFSAKPAGREPRTEAERVLC
B4: BpsB_M2_A: purified adenylation domain of BpsB module M2 (SEQ ID NO: 5); Amycolatopsis balhimycina (protein, listed as Amycolatopsis balhimycina)
chain: VGRLGVTSEPTRAAVVERWNSTGEAAAETSVLELFRRQAGASPDAVAVVAGERTLSYADLDRESDRLAGHLAGIGVGRGDRVGVVMTRGADLFVALLGVWKAGAAQVPVNVDYPAERIERMLADVGASVAVCVEATRKAVPDGVEPVVVDLPVIGGVRPEAPPVTVGAHDVAYVMYTSGSTGVPKAVAVPHGSVAALASDPGWSQGPGDCVLLHASHAFDASLVEIWVPLVSGARVLVAEPGTVDAERLREAVSRGVTTVHLTAGAFRAVAEESPDSFIGLREILTGGDAVPLASVVRMRQACPDVRVRQLYGPTEITLCATWLVLEPGAATGDVLPIGRPLAGRQAYVLDAFLQPVAPNVTGELYLAGAGLAHGYLGNTAATSERFVANPFSGGGRMYRTGDLARWTDQGELVFAGRADSQVKIRGYRVEPGEVEVALTEVPHVAQAVVVAREGQPGEKRLIAYVTAEAGSALESAAVRAHLATRLPEFMVPSVVVVLESFPLTLNGKIDRAALPAPEFAGKAAGREPRTEAERVLCG

Key:
Assay type in all cases: biochemical
[1] = PPi release assay, adenylation activity with L-hydroxyphenylglycine; conditions: substrate L-hydroxyphenylglycine
Source text: (§1) These assays use inorganic pyrophosphatases to convert PPi produced during aminoacyl-AMP formation to orthophosphate (Pi). To measure Pi concentrations some of these assays use molybdate/malachite green reagent for colorimetric detection (McQuade et al. 2008) or, as used in the context of the present invention, a shift in absorbance maximum by conversion of 7-methyl-6-thioguanosine (MESG) by purine nucleoside phosphorylase (Ehmann D. E. et al. (Proc. Natl. Acad. Sci. (2000) 97, 2509-2514) or Daniel & Aldrich (Anal. Biochem. (2010) 404, 56-63)).
(§2) To determine the adenylation activity of the adenylation domains, the Enzchek® pyrophosphate assay kit (Life Technologies) was used as described by Ehmann D. E. et al. (Proc Nat Acad Science (2000) 97, 2509-2514) with small modifications. The reactions were performed 96 wells UV/Vis transparent plates (BD Falcon). The reaction mixture comprises 50 mM HEPES pH 8.0, 10 mM MgCl2, 5 mM ATP, 75 mM DTT, 0.03 U Inorganic Pyrophosphatase (IP), 1 U Purine Nucleoside Phosphorylase (PNP) and 0.2 mM MESG in a volume of 70 μl. Next 20 μl (around 0.5-2 μM final concentration) of purified A(T) domain, with or without co-purification of the MbtH like helper protein was added and the reaction was pre-incubated for 15 minutes at RT to reduce contaminating Pi. Following the pre-incubation, 10 μl of a 10 mM or 1 mM solution of the appropriate amino acid depending on the performed specificity determination was added to initiate the adenylation reaction and the absorbance at 360 nm was measured using a TECAN I Control spectrophotometer. Absorbance measurements were made every 5 to 10 min over a period of up to 240 min. A reaction with addition of 10 μl MilliQ water instead was used to determine and subtract the background absorbance. As substrates the following amino acids were used: D- or L-phenylalanine, D- or L-hydroxyphenylglycine, D- or L-phenylglycine, L-tryptophan, L-valine, L-cysteine, and L-leucine.

[2] = PPi release assay, adenylation activity with D-hydroxyphenylglycine; conditions: substrate D-hydroxyphenylglycine
Source text: as §1, §2

[3] = PPi release assay, adenylation activity with L-phenylalanine; conditions: substrate L-phenylalanine
Source text: as §1, §2

[4] = PPi release assay, adenylation activity with D-phenylalanine; conditions: substrate D-phenylalanine
Source text: as §1, §2

[5] = PPi release assay, adenylation activity with L-tryptophan; conditions: substrate L-tryptophan; protein alone; data not shown
Source text: as §1
(§3) To determine the adenylation activity of the adenylation domains, the Enzchek® pyrophosphate assay kit (Life Technologies) was used as described by Ehmann D. E. et al. (Proc Nat Acad Science (2000) 97, 2509-2514) with small modifications. The reactions were performed 96 wells UV/Vis transparent plates (BD Falcon). […] Following the pre-incubation, 10 μl of a 10 mM or 1 mM solution of the appropriate amino acid depending on the performed specificity determination was added to initiate the adenylation reaction and the absorbance at 360 nm was measured using a TECAN I Control spectrophotometer. Absorbance measurements were made every 5 to 10 min over a period of up to 240 min. A reaction with addition of 10 μl MilliQ water instead was used to determine and subtract the background absorbance. […]

[6] = PPi release assay, adenylation activity with L-valine; conditions: substrate L-valine; protein alone; data not shown
Source text: as §1, §3

[7] = PPi release assay, adenylation activity with L-leucine; conditions: substrate L-leucine; protein alone; data not shown
Source text: as §1, §3

[8] = PPi release assay, adenylation activity with L-cysteine; conditions: substrate L-cysteine; protein alone; data not shown
Source text: as §1, §3

[9] = co-purified with MbtH-like protein Tcp13
[10] = protein alone, without MbtH-like protein

Row | Molecule | adenylation activity (absorption 360 nm, PPi release assay) [1, 9] | adenylation activity (absorption 360 nm, PPi release assay) [1, 10] | adenylation activity (absorption 360 nm, PPi release assay) [2, 9] | adenylation activity (absorption 360 nm, PPi release assay) [2, 10] | adenylation activity (absorption 360 nm, PPi release assay) [3, 9] | adenylation activity (absorption 360 nm, PPi release assay) [3, 10] | adenylation activity (absorption 360 nm, PPi release assay) [4, 9] | adenylation activity (absorption 360 nm, PPi release assay) [4, 10] | adenylation activity (PPi release assay) [5] | adenylation activity (PPi release assay) [6] | adenylation activity (PPi release assay) [7] | adenylation activity (PPi release assay) [8]
1 | B1 | clear adenylation activity | No adenylation activity | clear adenylation activity | No adenylation activity | no activity | No adenylation activity | no activity | No adenylation activity |  |  |  | 
2 | B2 |  | no adenylation activity |  | no adenylation activity |  | accepted as substrate |  | accepted as substrate | similarly recognized and adenylated | similarly recognized and adenylated | similarly recognized and adenylated | no adenylation activity
3 | B3 | clear adenylation activity | No adenylation activity | clear adenylation activity | No adenylation activity | no activity | No adenylation activity | no activity | No adenylation activity |  |  |  | 
4 | B4 | clear adenylation activity | No adenylation activity | clear adenylation activity | No adenylation activity | no activity | No adenylation activity | no activity | No adenylation activity |  |  |  | 
